Tests used:
[1] = biological target: cell surface receptors for M1 peptide (TCR Vβ17) on expanded Vβ17+CD8+ T cells; assay: tetramer staining, flow cytometry on enriched Vβ17+CD8+ T cells expanded with M1 peptide and IL-2
[2] = biological target: cell surface receptors for M1 peptide (TCR Vβ17) on expanded Vβ17+CD8+ T cells; assay: flow cytometry, staining with M1 peptide loaded MHC class I tetramer and anti-human Vβ17 mAb; enriched Vβ17+CD8+ T cells from day 12 PBMCs stimulated with M1 peptide and IL-2
[3] = biological target: cell surface receptors for M1 peptide (TCR Vβ17) on expanded Vβ17+CD8+ T cells; assay: flow cytometry, […] (91.6) […]

Influenza A derived Matrix protein (M1) peptide loaded MHC class I tetramer (MBL, Catalog No. TS-0012-2C) (peptide-MHC)
percent of expanded Vβ17+CD8+ T cells positive for the tetramer [1]: 86%
% M1 Tet-negative Vβ17+ cells among enriched Vβ17+CD8+ T cells [2]: 11.9%
% M1 Tet-positive Vβ17+ cells among enriched Vβ17+CD8+ T cells [2]: 86.8%
% M1 Tet-negative Vβ17+ cells among gated Vβ17+CD8+ T cells [3]: 11.9%
% M1 Tet-positive Vβ17+ cells among gated Vβ17+CD8+ T cells [3]: 86.8%

Source: US20220040232A1
